Test results taken from publication PMC9783754 (International Journal of Molecular Sciences, 2022).

What was measured:
[1] = target: T1, Recombinant human sTNF (soluble form of tumor necrosis factor) (human, UniProt P01375 77-233); experiment: SPR; ligand (50 μg/mL sTNF or TNF-β) immobilised on a ProteOn GLH chip by amine coupling; chip flushed with running buffer for two days and several times with 10 mM glycine pH 3.3 to dissociate sTNF multimers (monomeric sTNF); Ca2+-loaded S100 protein as analyte, 10 nM–2 µM; 25 °C; 10 mM HEPES, 150 mM NaCl, 1 mM CaCl2, 0.05% TWEEN 20, pH 7.4; heterogeneous ligand model; details: both partners purified
T1 construct: additional N-terminal methionine, stated in words; tumor necrosis factor, human, soluble form (157 residues), residues 77-233 of UniProt entry P01375; Monomeric on the SPR chip after long flushing and glycine pH 3.3 washes; multimeric in solution in the fluorimetric titrations and cross-linking; also called TNF-α; TNF ligand superfamily member 2; source: bought: Prospec-Tany Technogene (catalog # …)
T1 sequence (P01375 other isoform, or with tags, fused parts or gaps): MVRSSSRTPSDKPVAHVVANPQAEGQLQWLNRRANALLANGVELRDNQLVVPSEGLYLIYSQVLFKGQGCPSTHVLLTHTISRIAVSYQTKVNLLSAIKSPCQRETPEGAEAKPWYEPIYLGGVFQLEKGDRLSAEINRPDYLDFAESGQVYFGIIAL

[2] = target: the molecule itself; experiment: cross-linking; 4 µM sTNF and/or S100 protein (sTNF to S100 1:0, 0:1, 1:0.5, 1:1, 1:2), 20 mM EDAC and 5 mM sulfo-NHS, 25 °C, 1.5 h; 10 mM HEPES, 150 mM NaCl, pH 7.4 with 1 mM CaCl2; SDS-PAGE with silver staining
[3] = target: T1, Recombinant human sTNF (soluble form of …); experiment: other fluorescence titration; 280 nM (S100A11) or 0.5 µM (S100A12) multimeric sTNF titrated by Ca2+-bound S100 protein; Trp fluorescence of sTNF, excitation 295/298 nm, intensity at 325 nm; 25 °C; 10 mM HEPES-NaOH, 150 mM NaCl, 1 mM CaCl2, pH 7.4; single site binding model; apparent; details: both partners purified
[4] = target: T1, Recombinant human sTNF (soluble form of …); experiment: SPR; ligand (50 μg/mL sTNF or TNF-β) immobilised on a ProteOn GLH chip by amine coupling; chip flushed with running buffer for two days and several times with 10 mM glycine pH 3.3 to dissociate sTNF multimers (monomeric sTNF); Ca2+-loaded S100 protein as analyte, 10 nM–2 µM; 25 °C; 10 mM HEPES, 150 mM NaCl, 1 mM CaCl2, 0.05% TWEEN 20, pH 7.4; heterogeneous ligand model; details: both partners purified; remark: listed apart in the source

B1: Recombinant human S100A8 (natural protein, UniProt P05109 1-93, looked up)
chain: MLTELEKALNSIIDVYHKYSLIKGNFHAVYRDDLKKLLETECPQYIRKKGADVWFKELDINTDGAVNFQEFLILVIKMGVAAHKKSHEESHKE
notes: S100A8, human; Ca2+-loaded in the assay; source: E. coli, purified as previously described
Kd [1]: > 100000 nM

B2: Recombinant human S100A16 (natural protein, UniProt Q96FQ6 1-103, looked up)
chain: MSDCYTELEKAVIVLVENFYKYVSKYSLVKNKISKSSFREMLQKELNHMLSDTGNRKAADKLIQNLDANHDGRISFDEYWTLIGGITGPIAKLIHEQEQQSSS
notes: S100A16, human; Ca2+-loaded in the assay; source: E. coli, purified as previously described
Kd [1]: > 100000 nM

B3: Recombinant human S100A14 (natural protein, UniProt Q9HCY8 1-104, looked up)
chain: MGQCRSANAEDAQEFSDVERAIETLIKNFHQYSVEGGKETLTPSELRDLVTQQLPHLMPSNCGLEEKIANLGSCNDSKLEFRSFWELIGEAAKSVKLERPVRGH
notes: S100A14, human; Ca2+-loaded in the assay; source: E. coli, purified as previously described
Kd [1]: > 100000 nM

B4: Recombinant human S100A7 (natural protein, UniProt P31151 1-101, looked up)
chain: MSNTQAERSIIGMIDMFHKYTRRDDKIEKPSLLTMMKENFPNFLSACDKKGTNYLADVFEKKDKNEDKKIDFSEFLSLLGDIATDYHKQSHGAAPCSGGSQ
notes: S100A7, human; Ca2+-loaded in the assay; source: E. coli, purified as previously described
Kd [1]: > 100000 nM

B5: Recombinant human S100A15 (natural protein, UniProt Q86SG5 1-101, looked up)
chain: MSNTQAERSIIGMIDMFHKYTGRDGKIEKPSLLTMMKENFPNFLSACDKKGIHYLATVFEKKDKNEDKKIDFSEFLSLLGDIAADYHKQSHGAAPCSGGSQ
notes: Ca2+-loaded in the assay; source: E. coli, purified as previously described
Kd [1]: > 100000 nM

B6: Recombinant human S100A3 (natural protein, UniProt P33764 1-101, looked up)
chain: MARPLEQAVAAIVCTFQEYAGRCGDKYKLCQAELKELLQKELATWTPTEFRECDYNKFMSVLDTNKDCEVDFVEYVRSLACLCLYCHEYFKDCPSEPPCSQ
notes: S100A3, human; Ca2+-loaded in the assay; source: E. coli, purified as previously described
Kd [1]: > 100000 nM

B7: Recombinant human S100A4 (natural protein)
chain: not shown
notes: S100A4, human; Ca2+-loaded in the assay; source: E. coli, purified as previously described
Kd [1]: > 100000 nM

B8: Recombinant human S100A11 (natural protein, UniProt P31949 1-105, looked up)
chain: MAKISSPTETERCIESLIAVFQKYAGKDGYNYTLSKTEFLSFMNTELAAFTKNQKDPGVLDRMMKKLDTNSDGQLDFSEFLNLIGGLAMACHDSFLKAVPSQKRT
notes: S100A11, human, UniProt ID P31949 (printed in the methods of the database search); mainly dimeric by cross-linking at 4 µM; source: E. coli, purified as previously described
stoichiometry N [2]: 2 | Kd [3]: 104 ± 23 nM | stoichiometry N [3]: 1 | Kd1 (KD, ligand population 1) [4]: 28 nM | Kd2 (KD, ligand population 2) [4]: 695 nM | kd1 (koff, ligand population 1) [4]: 0.00018 s⁻¹ | kd2 (koff, ligand population 2) [4]: 0.0084 s⁻¹

B9: Recombinant human S100B (natural protein, UniProt P04271 1-92, looked up)
chain: MSELEKAMVALIDVFHQYSGREGDKHKLKKSELKELINNELSHFLEEIKEQEVVDKVMETLDNDGDGECDFQEFMAFVAMVTTACHEFFEHE
notes: S100B, human; Ca2+-loaded in the assay; source: E. coli, purified as previously described
Kd [1]: > 100000 nM

B10: Recombinant human S100A13 (natural protein, UniProt Q99584 1-98, looked up)
chain: MAAEPLTELEESIETVVTTFFTFARQEGRKDSLSVNEFKELVTQQLPHLLKDVGSLDEKMKSLDVNQDSELKFNEYWRLIGELAKEIRKKKDLKIRKK
notes: S100A13, human, UniProt ID Q99584 (printed in the methods of the database search); source: E. coli, purified as previously described
Kd1 (KD, ligand population 1) [4]: 2.4 nM | Kd2 (KD, ligand population 2) [4]: 4.3 nM | kd1 (koff, ligand population 1) [4]: 0.0009 s⁻¹ | kd2 (koff, ligand population 2) [4]: 0.0073 s⁻¹

B11: Recombinant human S100A9 (natural protein, UniProt P06702 1-114, looked up)
chain: MTCKMSQLERNIETIINTFHQYSVKLGHPDTLNQGEFKELVRKDLQNFLKKENKNEKVIEHIMEDLDTNADKQLSFEEFIMLMARLTWASHEKMHEGDEGPGHHHKPGLGEGTP
notes: S100A9, human; Ca2+-loaded in the assay; source: E. coli, purified as previously described
Kd [1]: > 100000 nM

B12: Recombinant human S100A2 (natural protein)
chain: not shown
notes: S100A2, human; Ca2+-loaded in the assay; source: E. coli, purified as previously described
Kd [1]: > 100000 nM

B13: Recombinant human S100A5 (natural protein, UniProt P33763 1-92, looked up)
chain: METPLEKALTTMVTTFHKYSGREGSKLTLSRKELKELIKKELCLGEMKESSIDDLMKSLDKNSDQEIDFKEYSVFLTMLCMAYNDFFLEDNK
notes: S100A5, human; Ca2+-loaded in the assay; source: E. coli, purified as previously described
Kd [1]: > 100000 nM

B14: Recombinant human S100P (natural protein, UniProt P25815 1-95, looked up)
chain: MTELETAMGMIIDVFSRYSGSEGSTQTLTKGELKVLMEKELPGFLQSGKDKDAVDKLLKDLDANGDAQVDFSEFIVFVAAITSACHKYFEKAGLK
notes: S100P, human; Ca2+-loaded in the assay; source: E. coli, purified as previously described
Kd [1]: > 100000 nM

B15: Recombinant human S100A12 (natural protein, UniProt P80511 1-92, looked up)
chain: MTKLEEHLEGIVNIFHQYSVRKGHFDTLSKGELKQLLTKELANTIKNIKDKAVIDEIFQGLDANQDEQVDFQEFISLVAIALKAAHYHTHKE
notes: S100A12, human, UniProt ID P80511 (printed in the methods of the database search); monomer and dimer by cross-linking at 4 µM; source: E. coli, purified as previously described
stoichiometry N [2]: 2 | Kd [3]: 348 ± 50 nM | stoichiometry N [3]: 1 | Kd1 (KD, ligand population 1) [4]: 2.3 nM | Kd2 (KD, ligand population 2) [4]: 8.4 nM | kd1 (koff, ligand population 1) [4]: 0.0018 s⁻¹ | kd2 (koff, ligand population 2) [4]: 0.0023 s⁻¹
